Reference: patent US10463752B2, “Protein polymer gold nanoparticle hybrid materials for small molecule delivery” (New York University, priority 2016, dated 2019)
Values joined by “and” are separate entries in the source; they are usually repeats but may differ in a detail not shown here. Equal values may be shown once. Marks after values point to notes of the source that are not given here.

B1: CE1-His6: protein diblock polymer with N-terminal hexahistidine tag, COMPcc coiled-coil C domain then elastin-like E1 domain (SEQ ID NO: 13) (protein)
chain: MRGSHHHHHHGSACELAATATATATATATAACGDLAPQMLRELQETNAALQDVRELLRQQVKEITFLKNTVMESDASGLQAATATATATATATAVDKPIAASAVPGVGVPGVGVPGFGVPGVGVPGVGVPLEGSGTGAKLN
B2: E1C-His6: protein diblock polymer with N-terminal hexahistidine tag, elastin-like E1 domain then COMPcc coiled-coil C domain (SEQ ID NO: 14) (protein)
chain: MRGSHHHHHHGSKPIAASAVPGVGVPGVGVPGFGVPGVGVPGVGVPLEGSELAATATATATATATAACGDLAPQMLRELQETNAALQDVRELLRQQVKEITFLKNTVMESDASGLQAATATATATATATAVDLQPS

Assays:
[1] = test system: MCF7 human breast cancer cells; experiment: MTS cell viability assay; conditions: absorbance at 490 nm
Method: (§1) Cell viability measurements were carried out using a CellTiter 96® Aqueous One solution kit (Promega) in a 96-well plate, seeded 1×10^4 cells/well. After 24 hours, the cells were treated for 4 hours or 24 hours with protein polymers and P•G NPs with and without curcumin along with control treatments of curcumin alone and media alone. After the treatment periods, 20 μL [3-(4,5-dimethylthiazol-2-yl)-5-(3-carboxymethoxyphenyl)-2-(4-sulfophenyl)-2H-tetrazolium (MTS) was added to each well, followed by incubation at 37° C. for 3 hours. The plate was centrifuged for 3 minutes at 2500 rpm and then subjected to absorbance measurements at 490 nm (Tables 3 and 4).

[2] = test system: MCF7 human breast cancer cells; experiment: Curcumin uptake in MCF7 cells by fluorescence microscopy; type: cell-based; conditions: complexed with curcumin
Method: MCF7 human breast cancer cells were obtained from ATCC and maintained at 37° C., 5% CO2 as monolayer cultures in Dulbecco's modified Eagle's medium (DMEM with high glucose containing phenol red) supplemented with 10% (v/v) fetal bovine serum (FBS), gentamicin (50 μg/mL), 100 U penicillin/100 μg/mL streptomycin. Because the loading capacities of curcumin for P•GNP nanocomposites are much larger than those of the proteins in the absence of GNP we prepared two corresponding curcumin controls that represented the bound curcumin levels in P•G NPs and protein polymers alone (Table 2). To avoid any uptake of unbound curcumin by the cells directly, we limited the curcumin amount that is equivalent to the loading capacity of 26 μM of protein samples in 50 mM sodium phosphate buffer, pH 7.4 and allowed to bind for 2 hours at room temperature prior to cell culture studies.
Multiple sets of experiments were performed to record curcumin uptake by image acquisition using FITC filter (Em: 520 nm) under fluorescence microscopy and direct measurement of curcumin uptake in cell extractions. Cells were grown directly on 24-well culture plates (8×10^4 cells/well) for cell extraction or on cover slips for microscopy. After 24 hours of cell plating, cells were treated for 4 or 24 hours with different combination of proteins with or without GNP and/or curcumin. For all the treatments, the total volume of samples with DMEM in 24-well plates was kept constant at 300 μL with proteins prepared at 10 μM concentrations. The ratio of sample amount to number of cells was also kept constant. The results are representative of two such independent sets of experiments.
For fluorescent imaging of curcumin uptake, cells on coverslips were fixed with 300 μL 4% paraformaldehyde solution in DPBS for 20 minutes at room temperature on a plate rocker. […] Cells were viewed using fluorescence microscope IX71 (Olympus) using DAPI (for cell nuclei) and FITC (for curcumin uptake) at 60× magnification while keeping the exposure time for the FITC images constant at 200 milliseconds.

[3] = Turbidometry, inverse temperature transition (Tt); type: physicochemical; conditions: midpoint of turbidity at 800 nm
Method: The turbidometry, or inverse temperature transition (Tt), was determined via UV-Vis Spectrophotometer Cary-50 (Agilent Technology) equipped with TC 125 temperature controller (Quantum Northwest) in Type 21 quartz cuvette with 10 mm path length (Buck Science) by monitoring the change in turbidity at 800 nm from 25° C. to 80° C. at a rate of 1° C./min. Protein stock solutions for Tt measurement were prepared in 0.2 mg/mL (or 14.3 μM and 14.4 μM for CE1-His6 and E1C-His6, respectively) in 10 mM sodium phosphate buffer, pH 8.0. In order to bring Tt value of all the samples into instrument operation range, highly concentrated NaCl solution was added prior to Tt measurement (Table 1). Measurements were performed on at least two different protein sample preps to calculate the average Tt. The Tt was determined at the midpoint of the normalized turbidity.

[4] = protein polymer without GNP; data from Haghpanah et al., Mol. Biosys. 2010; cited from earlier work
[5] = Curcumin loading capacity (small molecule loading); type: physicochemical; conditions: ratio of curcumin to protein or P•G NP; 2 hours incubation at room temperature
Method: Curcumin (6.5 nmol final concentration from 3 mM stock solution in HPLC grade methanol) was incubated with 1.3 nmol of CE1-His6, E1C-His6, CE1-His6•GNP and E1C-His6•GNP at room temperature for 2 hours and loaded onto Bio-Rad Spin6 columns packed with Sephadex G-25 medium beads 0.5 cm high. Bound protein polymer•curcumin complexes (in the presence or absence of GNP) were eluted by size, washed 3 times in 50 μL sodium phosphate buffer, followed by centrifugation for 5 min at 14000 rpm. The beads containing unbound curcumin were collected separately and resuspended back to buffer for solvent extraction. Both bound and unbound curcumin were extracted by adding 150 μL ethyl acetate and quantitatively determined by measuring absorbance at 416 nm. Absorbance was measured in a Hellma 105.201-QS type cuvette (10 mm light path, 100 μL sample) on SpectraMax M2. This binding study was performed on at least three different protein sample preparations to calculate the average loading capacities with errors represented as the standard deviation of the three trials.

[6] = Curcumin release over time; type: physicochemical; conditions: by 8.25 hrs, room temperature, 50 mM phosphate buffer pH 7.4
Method: Release of curcumin from CE1-His6, E1C-His6, CE1-His6•GNP and E1C-His6•GNP was then investigated. Curcumin (26 nmol) was added to 200 μL of 26 μM (5.2 nmol) protein sample. After 2 hours of incubation at room temperature, the solution was adjusted to contain a final concentration of 0.5 M NaCl. The protein polymer•curcumin complex (in the presence or absence of GNP) were incubated at 45° C. (well above the TO for 30 min and centrifuged to separate protein polymer•curcumin complex from excess curcumin. The pellets were resuspended in 200 μL of 50 mM phosphate buffer, pH 7.4 and kept at room temperature in the dark for release. After 10 min, the suspensions were centrifuged and the supernatant was removed and used for extraction assessment of released curcumin. This resuspension-incubation-spin-release cycle was repeated for the next eight hours at the following time points: 10, 25, 55, 85, 135, 195, 255, 315 and 495 min. Release study was performed on two different protein sample preparations to obtain the averaged release profile. Error bars on the release data represented standard error of the two sample preparations.

[7] = test system: MCF7 human breast cancer cells
Method: as §1

| Molecule | Abs. (MTS Assay) ([1]; 4 Hour Treatment, listed as CCM1) | Abs. (MTS Assay) ([1]; 4 Hour Treatment, listed as CCM2) | Abs. (MTS Assay) ([1]; 24 Hour Treatment, listed as CCM1) | Abs. (MTS Assay) ([1]; 24 Hour Treatment, listed as CCM2) | curcumin uptake visualized by fluorescence (FITC channel) [2] | Tt ([3]; 0.1621 mg/mL protein, 0.946M NaCl) | Size of protein particles [4] | CCM/P molar binding ratio [5] | release of free curcumin [6] | cytotoxicity (MTS assays) [7] | Tt ([3]; 0.1818 mg/mL protein, 0.45M NaCl) |
| --- | --- | --- | --- | --- | --- | --- | --- | --- | --- | --- | --- |
| COc1cc(/C=C/C(=O)CC(=O)/C=C/c2ccc(O)c(OC)c2)ccc1O [curcumin] | 2.039 ± 0.00 and 1.999 ± 0.05 | 2.044 ± 0.01 and 2.025 ± 0.02 | 1.974 ± 0.01 and 2.034 ± 0.02 | 1.98 ± 0.04 and 1.999 ± 0.01 | did not show any uptake | – | – | – | – | – | – |
| B1 | – | – | – | – | uptake albeit substantially less than the P•G NPs | 55.0 ± 0.8 °C | 26.0 ± 3.0^a nm | 0.40 ± 0.06 | 77.0% | neither the protein polymer nor P•G NPs s exhibited cytotoxicity | – |
| B2 | – | – | – | – | uptake albeit substantially less than the P•G NPs | – | 27.9 ± 3.7^a nm | 0.41 ± 0.10 | 78.8% | neither the protein polymer nor P•G NPs s exhibited cytotoxicity | 33.8 ± 2.2 °C |
